Data reported in the DeepSol protein solubility set.

Test: soluble on expression in E. coli; label from the status in PepcDB or PDB records

Sequence	soluble on expression in E. coli
MNVTEITQLARDIRVATLKSLNHLGFGHYGGSMSVVETLAVLYGAVMKIDPADPDWPERDYFVLSKGHAGPALYSTLAIKGYFPREELNTLNQNGTRLPSHPDRLKTRGVDATTGSLGQGISIAGGMALSHKLARRPNRVFCIVGDGELNEGQCWEAFQFIAHHRLNNLTVFIDWNKQQLDGELEEIINPFDLEGKFRAFGFDVVTVKGDDIAGLLAVVQPVPPADAQPRVVILDSIKGQGVPCLEQLTNSHHLRLTDGMKQTLNEAIHQLEVMHD	not soluble
MNVVQVEYLNVAEIKALLNSTISKLNPRYTSNYMIVTAILTGARLSEIAGLTWNDINFNFNTININKSYDYFAKSFKPTKNKSSNRIIKINNTLCDVLKELRTNNTDLVFKNKRGLIPTSNAVNKALRARLEELNINRRNFHFHSLRHSHVAFLLSQGIDIYPIAQRLGHSDITTTTRTYAYLIEEYKDKNDAIIIAGLDKLEHHHHHH	not soluble
MNVWSKLLTALRGGANEAGEALVDSQALRILDQEIRDADQELRKSKEALAEIMARQKLAAERANGSAAKIAEYESYALKALEAGNEALAQEVAQKIANLENDLAVEREQADGFAASVAQLRKAVTQAEGNIKHLKQQVDTVKATESVQKAQQAVAQRYGGSQSKLHTAVESLERIKQKQAERAAKMDAAAELANTSSPDDALDAKLREAGIVAGSTSADSVLARLKDRSKSLEHHHHHH	not soluble
MNWRAASAPPRSSPGLTSTCSRAAHWRDRGGAAAHAVLANVPQGRTLRDDAADLGWKPNHKFKGKLILTAPDAMPVDLNGVTITIAGPLQDELQALQDMHDQWLRQRKADPTRPPASAMLAAFVDKSVPNLSSIVLLAECGGKTMLLTGDARGDKIIEGLETTGKLAKDETLHVDILKVPHHGSDNNMETSFFERVTADHYVFSGNGDYGNPERATLQMLLDARGVAEDFTIHLTYPIEEIDAGREADWVKQQAKEAGRAKPPKGGVRPDWSAEEQGLVAFFANNPELAAHLIDLLDKAVVLEHHHHHH	not soluble
MNYEIVCGIETHIELATKTKIFCGCTTEFGGEPNTHCCPVCTGQPGSLPILNQKVVEYAIKAGLALNCKINTKSHMDRKNYVYPDLPKAYQISQYDEPLCEKGYIELDSGKRIGITRIHIEEDAGKLVHENGYTYIDYNRSGVPLIEIVSEPDISSAEEAREYAEKLQLIMRYIGISDCKMQEGSMRCDVNLSLRKPGDSRFGVRTEIKNINSLSFIQKAVMAEAERQADILDAGGTVVQQTMRYDEATNSVSPMRDKENSDDYRYFPDPDILRFSINDEKVEEIRASLPELPFDKLKRYVNVLGLPEATARQIFRYRKVAEFFEGALAEGASVKNAANLIVGTIFSNMDTEEEKELFDIRISSAQFAALVKLADEKKINIGVAQSTLQKMLESGKPVEEFIKPEDLAGISDEELESLCKEAIDANPKAVADVRSGKDKAINVMFGYIMKKTGGKADIRKVEVLLRKLIGQ	soluble
MNYGFVKVAAAVPRVKVADCKFNSERLEGLITIAEGKGVQILTFPEMCITGYTCGDLFAQQLLLEQAEMALIQILNSTRQLDIISILGMPVVVNSTVINAAVVIQKGKILGVVPKTYLPNYKEFYEQRWFTSALQVSENSVRLCGQIVPMGNNLLFETAETTFGIEICEDLWATVPPSSSLALQGAEIIFNLSADDEGIGKHNYLCSLISQQSARCISGYVFSSSGFGESTTDVVFAGNGLIYENGYLLARSERFCMEEQLIINEIDVECIRAERRVNTTFAANKANCPGKEAVRISTEFVNSKDLNLTRTFNPHPFVPQGNELNSRCEEIFSIQIAGLAQRLLHTGAKTAVIGISGGLDSTLALLVCVKTFDKLGLSRKDILGITMPGFGTTDRTYHNAIDLMNSLGVSIREISIREACIQHFKDIGHDLNIHDVTYENSQARERTQILMDIANQTWGMVIGTGDLSELALGWATYNGDHMSMYGVNAGIPKTLVKHLVQWVAENGMDETSKATLLDIVDTPISPELIPADELEHHHHHH	soluble
MNYQDVLDFWFAPDHTNFWFAKDSLFDDEIRTQFSTVHQQATQAELWSWRQTVEGRLAEIIVLDQFSRNLYRDQAQAFAQDSMALALAQEAITQQLDAQLSPEQRSFLYMPFMHSESKLIHEFALKLFQKLGNEINLSFEKKHKVIIDQFGRYPHRNAILGRQSTPEELEFLTQPNSHF	not soluble
MNYSRIAEAIEYIRAHYKEQPGLDEVAEKVHLSPFHFQRIFTEWAGLEHHHHHH	not soluble
MPAAAPGKNFDLSHWKLQLPDANTTEISSANLGLGYTSQYFYTDTDGAMTFWAPTTGGTTANSSYPRSELREMLDPSNSKVNWGWQGTHTMKLSGKTVQLPSSGKIIVAQIHGIMDDGTNAPPLVKAVFQDGQLDMQVKQNSDGTGSDVHNYFTGIKLGDLYNMEIRVTDGVAYVTMNGDTRSVDFVGKDAGWKNLKYYFKAGNYVQDNTSTGGSAIAKLYSLSVSHSNLEHHHHHH	soluble
MPAALLISGPCKICDLPAHGNHFGVLSCRACAAFFRRASRSPRFQDKACEYGDCRIFDAGAYRCKICRLKKCYKVGMDASKFQKDRDLISSSNAYLKRTKVYAPQSLANFLGRPEFIISFEPEKASPFKTVIDVTDLVHKAAEIFQEDLANSPMPYKYSNSLEKLTLEMEDLRLRSSNHKVKIVRNIGKAESLVFFEQMFLATANWYARLPDFTSLDLRVKLEILKSTWMLWIRLNKLAETAQNQRIKEMGANIFMCSENTCLNVQDINVDWSWCTNYGAEQMQAFLMPNIDKHWRQPVEDLVKLNPTDMELNFMLIQLCLNDAGKKFQGRVLEATDKLLQINADNLHNYYTKKLNMPSYSGRLTKLMKINQIVEEDVRERKEKAKIVEVFDLFSIVYSHPEMFEGT	not soluble
MPAEPQKSTEAGSVAPEKKLKACCACPETKRVRDACIIENGEEKCGKLIEAHKACMRAAGFNI	soluble
MPAKDVQICPIAVDTTVFRSRTWDRLKFEIEYGLQRGTTANSYLISADKIALFDPPGESFTDNFVGTLIQRLDLNSLDYVILGHVNANRAHTLKLLLSLAPQATIICSNPAAQNLEKLLADAEVNNPIQVMKGNDHLDLGRGHELTFIPTPSPRYPGQLCTYDPRTEILFTDKLFGAHVCGDQVFDEGWTIYQEDRRYYFDCLLAPAAAQVSAALNKLEAYPAQTYAPSHGPLVRYGLRELTRNYQQWLEHHHHHH	soluble
MPAKERFFGFHPCKLVEQVEDCVRDLLEDALDGLETSLFRECALAFDALQENAVTSEHEHAKRLLLQQGLMRLRDALFTAFYDQMDRLQVYLLRNVFHIPPGLRIPNVNTSEDLVENWEQALGIDPSSVQIDANAEDEHAVDQELVALRQSLRVARQRLQRLCRERSVLEGAFHRLEGALQSRLASTLIPTEPEDPSGDCDALAKQVVTIARAVSELEAVVRSCRDQFLGDRSSAASGGAPPSGTVPAAAGGSDVGAQGALVRPPLELERIFDAHTKATRVDSLDAVDALRRALHRSC	not soluble
MPAKTGQEYMERLKRAKSSVYIHGEKVEDVTVHPAFRNVVRSMAALYDRQYEKPEKMLYRSPTTGQLVGMTFIQPTTIDELIARREATQEWARMSAGMMGRSPDYLNAEVMAMGVANDLFAEDDPMFAENAKNYYEYARENDISLTHTLIHPQMNRAKALHEQNDADVPLHLVERRKDGIIVSGIRLLATQGGITDEILVFPSTVKKSTAGEDPYALAFAIPNNTPGVKFICREAFDYGRSSWDHPLASRFEEGDAIVSFENVFVPWERVFVCGNSSICNRTFRETNAVIHMSHQVVAKNIVKTEFLLGVTLCLIEAIGIGEFQHVKDKGAEIMLVLETMKSHLYRAEHNAKRDRWGTMTPDFAALDAARNWYPRIYPRLSEIIRILGASGLMAIPTEADFHNEEIGEIVSRAMQGATVDGYERVQLFRLAWDLTMSAFGARQTHYEYYFFGDPVRMGMAYFDGYEKEPYKQFVREFLRGAKSVFIPSDNKH	not soluble
MPAPLSIVIPTLQAESSLPRLLEALIEGLPNGLIREVIVSDGGSQDATRAIAEAAGAQVLNGPPSRGGQLRHGCDAARGDWLLVLHADTLPDPGWAGVVADHIAAREDAACFRLAFRARGPGAAWVAGWANLRTRLFGLPYGDQGLLIRRRDYQTAGGYPDQLLMEDVHLVRALSRAPVLLPHRALTGAERYLRSGWLRRGARNLWTLMRYFAGTDPEALARAYRRLEHHHHHH	not soluble
MPASEQGFWRGMETCGWGGGSYILYAWARNAPNLVLPKDVAFSVGHEQDGIKYFVLQVHYAQPFAGEVHDFSGVTMHISQKKPMNLAAVMLFVSGTPIPPQLPAFQNNITCMFESSTPIHPFAFRTHTHAMGRLVSAFFKHDGHWTKIGKRNPQWPQLFEGIPSKLMIGSGDQMSASCRFDSMDKNRTVNMGAMGVDEMCNFYMMFHYDAKLDNPYPQGAICAKDYPSKMIDYPKDGFELLPSRPELEHHAHQSKVPFGIVQEAIHENLGGVKLGQVAGLAFNNEQQLLVFQRAGRVWDASTFDNYNILLDKKPIADPVILVISYSGNQTKLERKLGGGQFYLPHGIYVDKDGFVYTTDVGSHTVAKWKIEGNELKNIWTSGELLMPGSDQHHYCKPTGITRVEDQLYVTDGYCNSRVVVLDLNGKRIRQFGLPGEDAGQFNLPHDIVSDSAGRLLVTDRENGRVQHMTTQGHVIEEFKSTMFTNIYSAASHEDYVFMVPGRPIMGHETEGIAVFVGRSGTGLIEYAFGPTTKGKREQMGPQFGQPHCLRVCPDGGHIFVGDIAEGKARLWQFKVNLLEMCGSKYDMIKIKLMILP	not soluble
MPDADVNDFELVDVDQKAADKAIKDLGVKATIDEVCTVGEEGYVVTATDKEGYGGDIKITVGITADGTINGISILSISETAGLGMRATEPAFYEQYQGKQAEKFVVSKDGGDGEPIDALSGATITSRAVTGAVNAALGYYQNAFLEHHHHHH	soluble
MPDAVYVFTPKGHIRALPRGATALDFAYAVHSDLGNQCVAVKINNELLPLRTELKSGDIVEVVTAPYSKLEHHHHHH	not soluble
MPDFKIVISDPQSVEPKRIKVKVKASDQVKSITGEKDGKAVPQAKVNEKTKQLLNVDTLLTLEITKQEGDKKVKVKGHFKVDVDNSVPDNEVWISKTMAEKFGAEDFEAFAYRTKTLQISVDQNKATNLVGLKIGDVFEANQLIGLPVKLKITGGSDNSGFPMRFDVIGAAKRKILLSGPPGFYPNENGERRRKTIRGNTISQEIVQINTIIVRLEHHHHHH	soluble
MPDGAQIQGLRPNGQSMEADMKLAVVTGQIVCTVRHQGLAHDKLLMVEMIDAQGNPDGQCAVAIDSIGAGTGEWVLLVSGSSARQAHRSELSPVDLCVIGIVDEVVAGGKVVFHKLEHHHHHH	not soluble
MPEFVQYVGGHFEEVGKEFMQYFIEIGNLKSNETVLDVGCGIGRMAVPLMNYLSDDGTYYGFDLFNKGITWCKNNISTRRNNFHFEHVDIYNQFYNPDGKEDASQYKFPYEDESFDFIFLTSVFTHLLPKELEHYVREIARVLKKDGRCFITFFLINPESSYYLNAGLSPLGFYHQIDNCYVLNKDIPNFAVAYPEEDIRTLLNKYGLEMQTPPHYGSWCGRTEHTSYQDIILAQKLEHHHHHH	soluble
MPELKVVVSIKQVPDVDELRIDPVTNNLVREGVPAVINPPDLHAIEEAVRLKERYGAKTIVITMGPPQADSALREALAMGIDEAYLISDRAMAGADTWATSYTISKAVQKLGGADLILFGRRAVDGETEQVGPQTGKWLGLPVIGYVSEIKSLEKDKIVVTRTTEFDEEVIEAPVPVVLTILEVANKPRQPDILSLIKAKTAKVTVWNKDDIKAEPNKIGLAGSPTKVIKVQPPPKTRKAEIIDGKKDVEKAAKWFLDKIFESLKE	not soluble
